Where a chain is given by its changes, count along the chain named.
T1: ProQ full-length (Escherichia coli, UniProt P45577 1-232)
T1 sequence: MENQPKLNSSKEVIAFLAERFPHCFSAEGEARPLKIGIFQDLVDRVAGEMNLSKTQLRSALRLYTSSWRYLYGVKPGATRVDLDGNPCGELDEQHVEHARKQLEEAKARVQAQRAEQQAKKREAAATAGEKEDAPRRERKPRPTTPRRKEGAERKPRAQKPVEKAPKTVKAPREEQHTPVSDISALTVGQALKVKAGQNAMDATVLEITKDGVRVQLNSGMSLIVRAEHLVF

T2: ProQ NTD (FinO domain) (Escherichia coli, UniProt P45577 1-130)
T2 sequence: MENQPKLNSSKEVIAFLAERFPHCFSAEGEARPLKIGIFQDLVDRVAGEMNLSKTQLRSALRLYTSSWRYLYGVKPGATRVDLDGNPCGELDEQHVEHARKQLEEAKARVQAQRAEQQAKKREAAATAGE

B1: malM-3' (structured_RNA)
RNA: GCUUUAUCAGCAGUGUAAAAGGCAAGGGGUAAUUACGCCCCACAGUGCUGAUUUUGCAACAACUGGUGCGUCUCCUGGCGCACCUUUUUUU
B2: cspE-3' (structured_RNA)
RNA: GUAAGAUACGUCAGCAAGAAUUCAAAACCCGCUUAAUCAGCGGGUUUUUUUU
B3: lpp-5'-mut (structured_RNA)
RNA: GCUACAUGGAGAUUAACUCAAUCUAGAGGGUAUUAAUAAUGAAAGCUACUAAACUGGUACUGGGCGCGGUAAUCCCGCGCCCUUUU
B4: hupA-5'-mut (structured_RNA)
RNA: GCGAAAAAAAGUGGCUAUCGGUGCGUGUAUGCAGGAGAGUGCUAUUCUGGCAUUUCCGUCGCACUCGAUGCUUAGCAAGCGAUAAACACAUCGUAAGGAUAACUUACGUUUU
B5: hupB-3'-RtoU (structured_RNA)
RNA: GGUAAACUAAGCGUUGUCCCCAGUGGGGAUGUGACGAAGUUCUUUGGCGCAUCUACUGAUGUGCCUUUUUU
B6: malM-3'-6U (structured_RNA)
RNA: GCUUUAUCAGCAGUGUAAAAGGCAAGGGGUAAUUACGCCCCACAGUGCUGAUUUUGCAACAACUGGUGCGUCUCCUGGCGCACCUUUUUU
B7: malM-3'-AA (structured_RNA)
RNA: B1 RNA with G68A, C69A, G80A, C81A
B8: malM-3'-AtoU (structured_RNA)
RNA: B1 RNA with A58U, A59U, A61U, A62U
B9: malM-3'-UU (structured_RNA)
RNA: B1 RNA with G68U, C69U, G80U, C81U
B10: gapA-3'-AtoU (structured_RNA)
RNA: GGACCUGAUCGCUCACAUCUCCAAAUAAGUUGAGAUGACACUGUGAUCUUUUUUGAGCGACUUCGGUCGCUCUUUUUUUU
B11: cspE81-3' (structured_RNA)
RNA: GGCCCUUCUGCUGCAAACGUAAUCGCUCUGUAAGAUACGUCAGCAAGAAUUCAAAACCCGCUUAAUCAGCGGGUUUUUUUU
B12: cspE81-3'-AtoU (structured_RNA)
RNA: B11 RNA with A53U, A54U, A55U, A56U
B13: malM-3'-4U (structured_RNA)
RNA: GCUUUAUCAGCAGUGUAAAAGGCAAGGGGUAAUUACGCCCCACAGUGCUGAUUUUGCAACAACUGGUGCGUCUCCUGGCGCACCUUUU
B14: cspE-3'-AtoU (structured_RNA)
RNA: B2 RNA with A24U, A25U, A26U, A27U
B15: infA-3'-AtoU (structured_RNA)
RNA: GUCGCUGAUUGUUUUACCGCCUGAUGGGCGAAGAGAAAGAACGAGUUUUUGGUCGGUUUAACCGGCCUUUUUAU
B16: malM-3'-5U (structured_RNA)
RNA: GCUUUAUCAGCAGUGUAAAAGGCAAGGGGUAAUUACGCCCCACAGUGCUGAUUUUGCAACAACUGGUGCGUCUCCUGGCGCACCUUUUU
B17: malM-3'-bulge (structured_RNA)
RNA: GCUUUAUCAGCAGUGUAAAAGGCAAGGGGUAAUUACGCCCCACAGUGCUGAUUUUGCAACAACUGGUGAAACGUCUCCUGGCGCACCUUUUUUU

Biological target: T1, ProQ full-length
Experiment: EMSA

Binder | Kd
B1 | 12 ± 5.3 nM
B2 | 13 ± 4.5 nM
B3 | 3 ± 1.3 nM
B4 | 14 ± 8 nM

Biological target: T2, ProQ NTD (FinO domain)
Experiment: EMSA

Binder | Kd
B5 | 29 ± 7.2 nM
B6 | 7.8 ± 1.2 nM
B7 | 6.6 ± 1.4 nM
B1 | 12 ± 4.8 nM
B8 | 5 ± 1.8 nM
B9 | 8.7 ± 2.1 nM
B10 | 18 nM
B11 | 7.6 ± 4.5 nM
B12 | 17 ± 4.6 nM
B13 | 27 ± 11 nM
B2 | 4.5 ± 1.5 nM
B14 | 100 ± 51 nM
B15 | 32 ± 13 nM
B16 | 9.7 ± 1.5 nM
B17 | 9 ± 2.5 nM
B4 | 16 ± 4.7 nM

Biological target: Hfq (Escherichia coli, UniProt P0A6X3 1-102)
Experiment: filter binding

Chain of Hfq (P0A6X3 whole entry): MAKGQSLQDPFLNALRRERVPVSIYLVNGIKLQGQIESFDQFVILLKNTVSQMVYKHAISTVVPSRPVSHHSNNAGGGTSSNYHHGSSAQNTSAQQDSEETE

Binder | Kd
B5 | 1.9 ± 0.75 nM
B1 | 22 ± 7 nM
B11 | 47 ± 11 nM
B14 | 1.7 ± 0.88 nM
B15 | 1.2 ± 0.55 nM
